From publication PMC9800739, “Epigenetic drugs in somatostatin type 2 receptor radionuclide theranostics and radiation transcriptomics in mouse pheochromocytoma models” (Theranostics, 2023)

Tests used:
MPC tumors [1] = format: in vivo, mouse; conditions: mouse, in vivo
Protocol: (§1) During anesthesia, animals were continuously warmed at 37°C. […] Animals were sacrificed using CO2 inhalation and cervical dislocation.
(§2) 107 (30%), muscle (0%), kidneys (25%), and liver (35%).
(§3) 116 attenuation. Images were post-processed and analyzed using ROVER (ABX). Three-
118 kidneys (15%), and liver (25%). […]

[2] = test system: midgut neuroendocrine liver metastases; conditions: after a short course of vorinostat; cited from earlier work
MPC tumors [3] = experiment: SPECT imaging of [177Lu]Lu-DOTA-TATE uptake in MPC allograft mice; conditions: mouse, in vivo
Protocol: as §1
(§4) Small animal single-photon emission computed tomography (SPECT) was initiated 22‒26 hours after radiotracer injection using the nanoSPECT/CT scanner (Mediso Medical Imaging Systems). […] Activity concentration in tissues was determined and reported as AV mean (VOI-averaged volume activity AV tissue 24h, MBq/mL). Details on quantitative SPECT image analysis are provided in Supplemental Information 1.5.
as §2, §3
(§5) 118 kidneys (15%), and liver (25%).
(§6) 119 1.6 Sstr2 promoter methylation analysis
(§7) 122 Bisulfite Kit (Qiagen, Hilden, Germany). Bisulfite-converted DNA was amplified using a
Amplicon size (195bp) was confirmed
(§8) 125 Switzerland). Electropherograms were compared to PCR products amplified from bisulfite-
(§9) 127 an unmethylated 900bp-DNA fragment. The latter was generated by amplification of genomic
(§10) 129 of primers are provided in (Table S 2).

MTT tumors = experiment: SPECT imaging of [177Lu]Lu-DOTA-TATE uptake in MTT allograft mice; conditions: mouse, in vivo
Protocol: as §1, §4, §2, §3, §5, §6, §7, §8, §9, §10

Compound: C[C@@H](O)[C@H](NC(=O)[C@@H]1CSSC[C@H](NC(=O)[C@@H](Cc2ccccc2)NC(=O)CN2CCN(CC(=O)O)CCN(CC(=O)O)CCN(CC(=O)O)CC2)C(=O)N[C@@H](Cc2ccc(O)cc2)C(=O)N[C@H](Cc2c[nH]c3ccccc23)C(=O)N[C@@H](CCCCN)C(=O)N[C@@H]([C@@H](C)O)C(=O)N1)C(=O)O [[^64Cu]Cu-DOTA-TATE, metal not drawn]
- SUVmean plateau, MPC compared to MTT allografts (MPC tumors [1]): 14 fold

Compound: O=C(CCCCCCC(=O)Nc1ccccc1)NO [vorinostat]
- increase in [68Ga]Ga-DOTA-TATE uptake in tumors [2]: 10%

Compound: C[C@@H](O)[C@H](NC(=O)[C@@H]1CSSC[C@H](NC(=O)[C@@H](Cc2ccccc2)NC(=O)CN2CCN(CC(=O)O)CCN(CC(=O)O)CCN(CC(=O)O)CC2)C(=O)N[C@@H](Cc2ccc(O)cc2)C(=O)N[C@H](Cc2c[nH]c3ccccc23)C(=O)N[C@@H](CCCCN)C(=O)N[C@@H]([C@@H](C)O)C(=O)N1)C(=O)O [[^177Lu]Lu-DOTA-TATE, metal not drawn]
- AV max 24h tumor, sub-cohort (MPC tumors [3]): 9.52 ± 0.58 MBq/mL
- AV mean 24h, MPC compared to MTT allograft mice (MPC tumors [3]): 8 fold
- mean tumor AV 24 h (single animal shown in image) (MPC tumors [3]): 4.14 MBq/mL
- AV max 24h tumor, sub-cohort (MTT tumors): 1.19 ± 0.10 MBq/mL
- mean tumor AV 24 h (single animal shown in image) (MTT tumors): 0.59 MBq/mL
